Substitutions are numbered along the chain they refer to.
B1: N1wc160 (scFv, V domains shown)
VH: QVQLQESGAEVKKPGASVKVSCKASGYNFTGYYMHWVRQAPGQGLEWMGWINPNSGGTNYAQKFQGRVTMTRDTSISTAYMELSRLRSDDTAVYYCATDSFDYWGRGTMVTVSS
VL: SYVLTQPPSASGTPGQRVTISCSGSSSNIGSNTVHWYQQLPETAPKLLIYTNNQRPSGVPDRFSGSKSGTSASLAISGLQSEDEADYYCASWDDSLKAYVFGTRTKLTVL
notes: phage scFv
B2: N1wc202 (scFv, V domains shown)
VH: B1 VH with Q1E, Q5V, E6Q, M109L
VL: SYELTQPPSVSGTPGQRVTISCSGSSSNIESNAVHWYQHLPGRAPKLLIFSHNQRPSGVPARFSGSKSGTSASLAISGLQSEDEADYYCAAWDDSLSGYVFASGTKLTVL
notes: phage scFv
B3: N1wc15 (scFv, V domains shown)
VH: B1 VH with E6Q, R106Q
VL: not shown
notes: phage scFv
B4: N1wc520 (scFv, V domains shown)
VH: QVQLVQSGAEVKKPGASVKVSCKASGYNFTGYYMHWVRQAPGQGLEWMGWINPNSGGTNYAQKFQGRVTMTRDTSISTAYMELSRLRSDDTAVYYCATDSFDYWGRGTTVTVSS
VL: B2 VL with E3V, L107V
notes: phage scFv
B5: N1wc175 (scFv, V domains shown)
VH: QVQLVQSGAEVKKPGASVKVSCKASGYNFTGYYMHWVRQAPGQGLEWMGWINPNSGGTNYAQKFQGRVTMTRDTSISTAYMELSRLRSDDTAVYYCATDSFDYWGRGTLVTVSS
VL: QSVLTQPPSASGTPGQRVTISCSGSRSSIGSNTVSWYQQLPGTAPKLIIYTNNQRPSGVPDRFSGSKSGTSATLAISGLQSEDEADYYCASWDDSLNDYVFGVGTKVTVL
notes: phage scFv
B6: N1wc625 (scFv, V domains shown)
VH: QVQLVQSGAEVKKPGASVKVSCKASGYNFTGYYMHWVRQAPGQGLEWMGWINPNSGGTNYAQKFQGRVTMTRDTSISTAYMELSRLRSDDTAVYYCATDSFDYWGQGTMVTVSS
VL: QSVLTQPPSASGTPGQRVTISCSGGRSNIGTNYVYWYQKLPGTAPKSLIYTTNQRPSGVPDRFSGSKAGTSASLAISGLRSEDEGDYYCASWDESLNGVVFGGGTKVTVL
notes: phage scFv
B7: N1wc13 (scFv, V domains shown)
VH: B1 VH with Q5V, E6Q, D73E
VL: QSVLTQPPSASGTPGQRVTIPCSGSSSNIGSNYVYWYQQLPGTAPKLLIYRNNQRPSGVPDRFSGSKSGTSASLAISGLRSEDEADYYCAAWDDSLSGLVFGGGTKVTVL
notes: phage scFv
B8: hN1S3-141 (scFv, V domains shown)
VH: B1 VH with Q5V, E6Q, M34I, T69I, M109L
VL: QSVLTQPPSASGTPGQRVTISCSGSYSNIGSNYVYWYQQFPGTAPKLLIYTNNQRPSGVPDRFSGSKSGSSASLAISGLRSEDEADYYCAAWDDSVGVLLFGGGTKLTVL
notes: phage scFv
B9: N1wc131 (scFv, V domains shown)
VH: B1 VH with Q1E, Q5V, E6Q, V11A, R106Q, M109L
VL: SYELTQPPSASGTPGQRVTISCSGTSSNIGINYVYWYQQLPRTAPKLLIYYNNQRPSGVPDRFSGSRSGTSASLAISGLRSEDEADYYCAAWDDSLSGLVFGTGTKLTVL
notes: phage scFv
B10: N1wc476 (scFv, V domains shown)
VH: B1 VH with Q1E, Q5V, E6Q, R106Q, M109L
VL: QAVLTQPSSVSGTPGQTVTISCSGSNSNIGNNYVYWYQQLPGSAPKVVIYRNHQRPSGVPDRFSGSKSGTAASLAISGLRSEDEADYYCASWDDSLSGLVFGGGTKLTVL
notes: phage scFv
B11: N1wc72 (scFv, V domains shown)
VH: B1 VH with Q1E, Q5V, E6Q, R106K
VL: B8 VL with S2P, L107V
notes: phage scFv
B12: hN1S3-184 (scFv, V domains shown)
VH: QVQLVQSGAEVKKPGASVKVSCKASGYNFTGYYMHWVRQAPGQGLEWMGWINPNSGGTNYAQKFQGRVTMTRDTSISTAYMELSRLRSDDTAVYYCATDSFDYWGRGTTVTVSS
VL: QSVLTQPPSASGTPGQRVTISCSGSSSNIGGNYVYWYQQLPGTAPKLLIYRSNQRPSGVPDRFSGSKSGTSASLAISGLRSEDEADYYCAAWDDSLHGVIFGGGTKLTVL
notes: phage scFv
B13: N1wc79 (scFv, V domains shown)
VH: B1 VH with E6Q, R106Q
VL: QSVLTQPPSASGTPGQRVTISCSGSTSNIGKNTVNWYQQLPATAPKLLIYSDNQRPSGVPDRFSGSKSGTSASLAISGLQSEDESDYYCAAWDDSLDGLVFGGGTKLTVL
notes: phage scFv
B14: hN1S3-035 (scFv, V domains shown)
VH: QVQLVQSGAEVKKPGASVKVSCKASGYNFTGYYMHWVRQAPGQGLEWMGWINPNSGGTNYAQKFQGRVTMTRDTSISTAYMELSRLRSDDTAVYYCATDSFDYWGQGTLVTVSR
VL: QAVLTQPSSVSGAPGQRVTISCTGSSSNIGAGYDVHWYQQLPGTAPKLLIYGNSNRPSGVPDRFSGSKSGTSASLAITGLQAEDEADYYCQSYDSSLSGSVFGGGTKVTVL
notes: phage scFv
B15: N1wc130 (scFv, V domains shown)
VH: B1 VH with E6Q, S88P, R106K
VL: B14 VL with S25T, S26G, G52A, S54T
notes: phage scFv
B16: N1wc225 (scFv, V domains shown)
VH: B1 VH with E6Q
VL: B14 VL with A2S, L4V, S8P, V108L
B17: hN1S3-077 (scFv, V domains shown)
VH: EVQLVQSGAEVKKPGAPVKVSCKTSGYGFSNYYMHWVRQAPGQGLEWLGMINPSDGSQHFAQRFRDRVSFTSDTSTSAVYMELAGLRSDDTAVYYCAREKANSMYFDYWGQGTLVTVSS
VL: QSVVTQPPSLSAAPGQRVTISCSGSHSNIGNFYVSWYQQVPGAAPKLLIYDNNERPSGIPDRFSGSKSGTSATLDITGLQTGDEADYYCSTWDRSLSASVFGSGTKLTVL
notes: phage scFv
B18: hN1S3-147 (scFv, V domains shown)
VH: QVQLVQSGPEVKKPGTSVKVSCKASGFTFTSSAVQWVRQARGQRLEWIGWIVVGSGNTNYAQKFQERVTITRDMSTSTAYMELSSLRSEDTAVYYCVADTVYWGKGTLVTVSS
VL: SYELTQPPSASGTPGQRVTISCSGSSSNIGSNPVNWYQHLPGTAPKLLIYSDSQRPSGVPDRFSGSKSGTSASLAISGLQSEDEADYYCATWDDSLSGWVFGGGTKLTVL
notes: phage scFv
B19: hN1S3-133 (scFv, V domains shown)
VH: B18 VH with K105Q
VL: QSVLTQPPSVSEAPRQRVTISCSGSSSNIGNNAVNWYQQLPGEAPKLLIYYDDLLPSGVSDRFSGSKSGSSASLAISGLQAEDEADYYCATWDDSLNAWVFGGGTKVTVL
notes: phage scFv
B20: hN1S3-082 (scFv, V domains shown)
VH: B18 VH with K105R
VL: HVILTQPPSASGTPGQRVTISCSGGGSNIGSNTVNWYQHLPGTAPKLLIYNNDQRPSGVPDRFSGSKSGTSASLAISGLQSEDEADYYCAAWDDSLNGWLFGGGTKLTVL
notes: phage scFv
B21: hN1S3-130 (scFv, V domains shown)
VH: KVQLVQSGAEVKKPGASVKVSCKASGYTFTDFYIHWVRQAPGQGLEWMGWINSKSGDTHYAQKFQGRVTLTRDTSTDTAYMELSRLTSDDTAVYYCARGAYDYVWGSSRYVADAFDIWGRGTMVTVSS
VL: DIVMTQSPSTLSASVGDRVTITCRASQGISSWLAWYQQKPGRAPKVLIYKASTLESGVPSRFSGSGSGTDFTLTISSLQPEDFATYYCQQSYSTPWTFGQGTKLEIK
notes: phage scFv
B22: hN1S3-083 (scFv, V domains shown)
VH: QVQLQQSGPGLVKPSQTLSLTCAISGDSISSSSATWNWIRQSPSRGLEWLGRTYYRSKWYNDYAVSVKSRITIDPDTSKNQFSLQLNSVTPEDTAVYYCARQLGGRIEFWGQGTLVTVSS
VL: QSVLTQPPSASGSPGRSVTISCTGTSRDVGAYNYVSWYQQHPGEAPKLLISEVTKRPSGVPARFSASKSGNTASLTISGLQAEDEGDYYCSSYAGSDSWVFGGGTKLTVL
notes: phage scFv

The binders below were run against T1, human full-length Notch1 with C-terminal FLAG tag, stably expressed on 293 FlpIn (TREx) cells (human, UniProt P46531 19-2555) (assay: FACS, phage scFv).
T1 construct: tetracycline/doxycycline-induced expression from pcDNA5/FRT/TO-HN1+FLAG; also called hN1; 293_N1

Question: Does B1 bind?
Answer: binds

Question: Does B2 bind?
Answer: binds

Question: Does B3 bind?
Answer: binds

Question: Does B4 bind?
Answer: binds

Question: Does B5 bind?
Answer: binds

Question: Does B6 bind?
Answer: binds

These binders were tested against T2, human full-length Notch3 with C-terminal FLAG tag, stably expressed on 293 FlpIn (TREx) cells (human, UniProt Q9UM47 40-2321) (assay: FACS, phage scFv).
T2 construct: whole, on cells; made by the same strategy as the Notch1 line; also called 293-N3; hN3

Question: Does B7 bind?
Answer: binds

Question: Does B8 bind?
Answer: binds

Question: Does B9 bind?
Answer: binds

Question: Does B10 bind?
Answer: binds

Question: Does B11 bind?
Answer: binds

Question: Does B12 bind?
Answer: binds

Question: Does B3 bind?
Answer: binds

Question: Does B13 bind?
Answer: binds

Question: Does B14 bind?
Answer: binds

Question: Does B15 bind?
Answer: binds

Question: Does B16 bind?
Answer: binds

Question: Does B17 bind?
Answer: binds

Question: Does B18 bind?
Answer: binds

Question: Does B19 bind?
Answer: binds

Question: Does B20 bind?
Answer: binds

Question: Does B21 bind?
Answer: binds

Question: Does B22 bind?
Answer: binds
